Assay results: patent US20240400677A1

Molecular target: human SIRPα V1-His monomer protein (human) (UniProt P78324)
Experiment: BLI Octet, V5-scFv PPE captured, SIRP-His 500 nM

Chain of human SIRPα V1-His monomer protein (human) (P78324 31-370): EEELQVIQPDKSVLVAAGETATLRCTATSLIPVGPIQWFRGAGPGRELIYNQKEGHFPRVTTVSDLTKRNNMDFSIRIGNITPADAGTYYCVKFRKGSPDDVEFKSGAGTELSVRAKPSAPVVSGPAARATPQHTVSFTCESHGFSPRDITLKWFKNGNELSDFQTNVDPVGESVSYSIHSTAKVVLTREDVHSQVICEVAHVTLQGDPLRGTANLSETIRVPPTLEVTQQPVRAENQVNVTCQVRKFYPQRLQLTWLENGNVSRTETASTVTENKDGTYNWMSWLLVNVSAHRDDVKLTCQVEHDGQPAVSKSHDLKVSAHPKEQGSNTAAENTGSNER

Row | Binder | kdis [s⁻¹]
1 | Antibody 28 (scFv, V domains shown) VH: QVQLVQSGAEVKKPGASVKVSCKASGYTFTSYNIHWVRQAPGQGLEWMGWISAYNGNTNYAQKLQGRVTMTRDTSTSTVYMELSSLRSEDTAVYYCALDGGQLGVAFDIWGQGTMVTVSS VL: DIQMTQSPSSLSASVGDRVTITCRASQGISNWLAWYQQKPGKAPKLLIYDASNLDAGVPSRFSGSGSGTDFTLTISSLQPEDFATYYCQQANSLPLTFGGGTKVEIK | > 0.01
2 | Antibody 11 (scFv, V domains shown) VH: QVQLVQSGAEVKKPGASVKVSCKASGYTFTSYDINWVRQAPGQGLEWMGWMNPNSGNTGYAQKFQGRVTMTRDTSTSTVYMELSSLRSEDTAVYYCAKGAVAGTYYYYGMDVWGQGTTVTVSS VL: DIQMTQSPSSLSASVGDRVTITCRASQTINNYLNWYQQKPGKAPKLLIYDASNLETGVPSRFSGSGSGTDFTLTISSLQPEDFATYYCQQANSFPLTFGQGTKVEIK | > 0.01

The remaining lines, values ahead:

Row | kdis [s⁻¹] | Binder
3 | > 0.01 | Antibody 31 (scFv, V domains shown) VH: QVQLVQSGAEVKKPGASVKVSCKASGGTFRSYAISWVRQAPGQGLEWMGWMNPNSGNTGYAQKFQGRVTMTRDTSTSTVYMELSSLRSEDTAVYYCARESVLKGGMDVWGQGTTVTVSS VL: DIVMTQSPDSLAVSLGERATINCRSSQSLFHSSTNANNLAWYQQKPGQPPKLLIYWASTRESGVPDRFSGSGSGTDFTLTISSLQAEDVAVYYCQQYYITPLTFGQGTRLEIK
4 | > 0.01 | Antibody 37 (scFv, V domains shown) VH: QVQLVQSGAEVKKPGASVKVSCKASGYTLNNYDINWVRQAPGQGLEWMGWISGYNGNTNYAQKLQGRVTMTRDTSTSTVYMELSSLRSEDTAVYYCARVGSSWEENDQWGQGTLVTVSS VL: DIQMTQSPSSLSASVGDRVTITCRASQSISRWLAWYQQKPGKAPKLLIYAASSLESGVPSRFSGSGSGTDFTLTISSLQPEDFATYYCQQTHSFPLTFGGGTKVEIK
